Six molecules from US20220315908A1, “NOVEL GARDNERELLA ENDOLYSINS AND USES THEREOF” (priority 2019, published 2022) can be followed below.

B1: H11B11: natural Gardnerella prophage endolysin from strain JCP8017A (protein)
chain: MSKRGIDVSVWQGDIDFNAVKASGVEFVIIRAGYGIGHKDKWFEQNYRKAKTTGLDVGAYWYSYASSAGEAAEEAQSCVNILSGKSFEYPVYFDLEEKSQLNRGRDFCDSLITSFCNKLETYGYYAGFYTSLSVANNLVSSHVRDRYALWIAQWNTHCDYQGSYGLWQYSSSGSVDGIAGRVDMDYTYVDYPSVIKKAGLNGYKNGGSYTAPQTSSIDEVAREVINGDWGNGNERKNRLTSAGYDYTSVQNKVNELLGVKAYRKSVDELAREVIRGTWGNGSTRKQRLTQAGYDYDAVQKRVNELL
modifications: EL11_strain_JCP8017A
notes: natural Gardnerella prophage endolysin from strain JCP8017A
B2: H12B12: natural Gardnerella prophage endolysin from strain 3549624 (protein)
chain: MSKKGIDVSVWQGDIDFNAVKASGVEFVIIRAGYGIGHKDKWFEENYRKAKTAGLDVGSYWYSYASSAGEVALEAQSCVNILSGKSFEYPVYFDLEEKSQLNRGRDFCDSLITSFCNKLEACGYYAGFYTSLSVANNLVSSHVRDRYALWIAQWNTHCSYQGSYGLWQYSSSGSVNGIAGRVDMDYAYVDYPSVIKNAGLNGYQNGGSYTAPQTSSIDEVAREVINGDWGNGIERKNRLTSAGYDYTSVQNKVNELLGVKAYRKSVDELAREVIRGTWGNGKTRKQRLTQAGYDYNAVQKRVNELL
modifications: EL12_strain_3549624_non-prophage
B3: H4B4: natural Gardnerella prophage endolysin from strain Gv5-1 (protein)
chain: MSKKGIDVSEWQGDIDFNAVKASGVEFVIIRAGYGIGCKDKWFEQNYRKAKTCGLDVGAYWYSYANSGFEAAEEAQSCVNMLSGKSFEYPVYFDLEEKSQLNRGRAFCDSLITSFCSKLETYGYYAGFYTSLSVVNNLVSAHVRDRYALWIAQWNTHCSYQGSYGLWQYSSSGSVPGVAGRVDMDYAYVDYPSIIKNVGLNGCKNGGSDQATRTSSIDEVAREVINGAWGNGNERKQRLTSAGYDYASVQNKVNKLLGVKAYRKSVDELAREVIRGTWGNGNERKQRLAQAGYDYDTVQKRVNELL
modifications: EL4_strain_Gv5-1
B4: H10B10: natural Gardnerella prophage endolysin from strain G30-4 (protein)
chain: MSKRGIDVSVWQGDIDFNAVKASGVEFVIIRAGYGIGHKDKWFEENYRKAKTVGLDVGAYWYSYASSAGEASEEAQSCVNILSGKSFEYPVYFDLEEKSQLNRGRDFCDSLITSFCNKLEACGYYAGFYTSLSVANNLVSSHVRDRYALWIAQWNTHCSYQGSYGLWQYSSSGSVNGIAGRVDMDYAYVDYPSVIKNAGLNGYKNGGSYTAPQISSIDEVAREVINGDWGNGNERKQRLTSAGYDYASVQNKVNELLGVKAYRKSVDELAREVIRGTWGNGSTRKQRLTQAGYDYNAVQKRVNELL
modifications: EL10_strain_G30-4
B5: H5B5: natural Gardnerella prophage endolysin from strain JCP7276 (protein)
chain: MSKKGIDVSEWQGDIDFNAVKASGVEFVIIRAGYGIGCKDKWFEQNYRKAKTAGLDVGAYWYSYANSSSEAAEEAQSCANMLSGKSFEYPVYFDLEEKSQLNRGRAFCDSLITGFCSKLEACGYYAGFYTSLSTANNLVSAHVRNRYALWIAQWNTHCSYQGSYGLWQYSSNGSVPGVAGRVDMDYAYKDYPSIIKNAGLNGCKNGGSDQAARTSSIDEVAREVINGAWGNGNERKQRLTQAGYDYTSVQNKVNKLLGVKACRKSVDELAREVIRGTWGNGNERKNRLTQAGYDYDTVQKRVNELL
modifications: EL5_strain_JCP7276
notes: natural Gardnerella prophage endolysin from strain JCP7276
B6: H7B7: natural Gardnerella prophage endolysin from strain AMD (protein)
chain: B5 chain with S68A, G114S, A121T, C122Y, A141S, N172S
modifications: EL7_strain_AMD
notes: natural Gardnerella prophage endolysin from strain AMD

Substitutions are numbered along the chain they refer to.

For one test, the system named is G. vaginalis sensu stricto strain Gv_9. As to the kind of experiment: Quantitative reduction in viable CFU assay in bacterial suspension. Type of test: cell-based, Gardnerella vaginalis sensu stricto. Particulars: Gv_9; 5 hours, pH 5.0, anaerobic; 10 ul endolysin (0.2 mg/ml where possible) + 90 ul 5e7 CFU/ml; average of triplicate. The procedure:
The lysis activity on the four main species of Gardnerella of 91 constructs (natural and domain-swapped endolysins) was quantitatively assessed using the method described in Reference Example 2. […]
(§1) The results are shown in FIGS. 8A to 8D together with Tables 5A to 5C. In FIGS. 8A to 8D, the logarithmic Y axis depicts the count of surviving cells. The dotted line indicates the limit of detection (LOD) given by plating of 2 ul of the reaction mix (500 CFU/ml). Each combination of the natural 10 H-domains and the natural 9 B-regions was assessed, including the natural endolysins (H1B1, H2B2, H3B3, etc.), plus H6B6. […] The activity of each construct was measured on each of the 4 main Gardnerella species G. vaginalis sensu stricto, G. leopoldii, G. piotii, and G. swidsinkii. All conditions have been measured in triplicate. The survival after 5 hours incubation at pH 5.0 under anaerobic conditions with endolysins vs. buffer was measured by quantitative plating. The values indicate the log 10 of the ratio of surviving CFU for treated vs. untreated cells. The average of the triplicate measurements is used. In tables 5A and 5B, high negative log 10 values, e.g. −6.7, −5.5, −4.8 etc. are associated with high enzymatic activity, while log 10 values closer to zero or even positive log 10 values are associated with low or no enzymatic activity. […] Inversely, a reduction value of −3.7 means a 10^3.7-fold (=5012-fold) reduction of viable CFU in treated sample vs. untreated control.
(§2) Gardnerella cells were recovered from cryo stock by plating on Chocolate Agar plates (Beckton Dickinson) and incubating for 48 h at 37° C. under anaerobic conditions. For Lactobacilli, BD Schaedler/5% sheep blood agar plates were used instead. Colonies were scraped from the plate, resuspended in Hardy Broth or NYC-III-HS-5.0 at the pH as indicated, and the suspension adjusted to OD (610 or 620 nm as indicated) 0.1. It has to be noted that two Tecan Microplate readers, having respectively a 610 nm or 620 nm filter, have been used interchangeably in the experiments. Although it doesn't make any difference for the experiments, the exact wavelength used is specified in each example. If not stated otherwise, 90 μl cell suspension was mixed with 10 μl endolysin solution, for the different species/endolysin combinations, in 384-well plates. OD(610-620 nm as indicated) was measured at the beginning of the reaction and at the end, either as two measurement points or as a continuous kinetic in a Tecan F200 Microplate reader. The reactions were incubated for 5 hours (or otherwise the time indicated) at 37° C. under anaerobic, micro-aerophilic or aerobic conditions as indicated. Anaerobic conditions intend that oxygen was fully depleted from the container in which the bacteria are incubated (Sigma-Aldrich anaerobic jar or sealable lunch box) with an anaerobic sachet, and the lack of oxygen was confirmed with an anaerobic indicator inside the container. Where micro-aerophilic conditions are indicated, the candle-in-a-jar method was used (tea candle lit in an appropriate sealable container, which reduces oxygen levels until the flame dies out). Then each well was diluted in 5 steps (10^−1 to 10^−5) using 96-U-well bottom plates, and 2 μl of each dilution of each reaction mix are plated on BD Chocolate agar plates or BD Schaedler/5% sheep blood agar plates for Gardnerella and Lactobacilli, respectively, for detecting and quantifying surviving CFU. Detection plates were incubated at 37° C. for 48 hours under anaerobic conditions.
B1: the “log 10 of the ratio of surviving CFU for treated vs. untreated cells” value (“log 10 of the ratio of surviving CFU” for short) is 0.1 log 10.
As for B2, the “log 10 of the ratio of surviving CFU” value is −0.2 log 10.
On the same count and under the same terms, to B3 belongs −0.4 log 10.
As for B4, the “log 10 of the ratio of surviving CFU” value is −3.5 log 10.
Same read-out and setting: to B5 belongs 0.2 log 10.
Still for that read-out and setting: the figure for B6 is −1.6 log 10.

A further test relates to G. swidsinskii strain Gv_23. Described as above. The settings on record: 5 hours, pH 5.0, anaerobic, 10 ul endolysin (0.2 mg/ml where possible) + 90 ul 5e7 CFU/ml, average of triplicate. Format: cell-based, Gardnerella swidsinskii. As to the method: (§3) The lysis activity on the four main species of Gardnerella of 91 constructs (natural and domain-swapped endolysins) was quantitatively assessed using the method described in Reference Example 2. Briefly, 90 ul 5e7 CFU/ml of the indicated strain were incubated for 5 hours at pH 5.0 under anaerobic conditions with 10 ul endolysin (concentration adjusted to 0.2 mg/ml where possible, see Table 4).
as §1, §2
As to B1, the “log 10 of the ratio of surviving CFU” value is listed as −3.5 log 10.
The same measure, in the same setting: the figure for B2 is −1.9 log 10; for B3 it is −2.0 log 10; for B4 it is −5.5 log 10.
Still for that read-out and setting: the figure for B5 is −0.1 log 10; for B6 it is −3.2 log 10.

Another test concerns G. leopoldii strain Gv_11. The description is as above. Type of test: cell-based, Gardnerella leopoldii. Particulars: 5 hours, pH 5.0, anaerobic, 10 ul endolysin (0.2 mg/ml where possible) + 90 ul 5e7 CFU/ml, average of triplicate. As to the method:
as §3, §1, §2
Take B1: the “log 10 of the ratio of surviving CFU” value is on record as −1.6 log 10.
The same measure, in the same setting: to B2 belongs −1.0 log 10; to B3, −0.5 log 10.
With B4, the “log 10 of the ratio of surviving CFU” value was −1.6 log 10.
Same read-out and setting: to B5 belongs 0.3 log 10.
In the case of B6, the “log 10 of the ratio of surviving CFU” value is given as −2.1 log 10.

For another test, the system named is four Gardnerella strains (Gv_9, Gv_11, Gv_17, Gv_23). Briefly: CFU reduction averaged across the four Gardnerella strains, with activity ranks. Format: cell-based. Particulars: pH 5.0, 5 hours, anaerobic. As to the method:
as §3, §1
as §2, with “out).” for “out). Then each well was diluted in 5 steps (10^−1 to 10^−5) using 96-U-well bottom plates, and 2 μl of each dilution of each reaction mix are plated on BD Chocolate agar plates or BD Schaedler/5% sheep blood agar plates for Gardnerella and Lactobacilli, respectively, for detecting and quantifying surviving CFU. Detection plates were incubated at 37° C. for 48 hours under anaerobic conditions.”
Consider B1, for which the “average of the log 10 activities of each construct across the four Gardnerella strains” value is recorded as −1.5 log 10.
Same read-out and setting: the figure for B2 is −0.9 log 10; for B3 it is −0.8 log 10; for B4 it is −3.3 log 10.
Turning to B5, the “average of the log 10 activities of each construct across the four Gardnerella strains” value is recorded as 0.1 log 10.
Turning to B6, the “average of the log 10 activities of each construct across the four Gardnerella strains” value is recorded as −2.0 log 10.

The test is the same for the next values; noted with them: rank 1-91, based on the data of Table 5B.
On to B1, for which the “activity rank of all endolysins” value is on record as 57.
Still for that read-out and setting: to B2 belongs 73.
Consider B3, for which the “activity rank of all endolysins” value turned out to be 76.
Turning to B4, the “activity rank of all endolysins” value amounted to 6.
The same measure, in the same setting: to B5 belongs 87; to B6, 40.

For a further test, the system named is G. piotii strain Gv_17. Briefly: Quantitative reduction in viable CFU assay in bacterial suspension. Format: cell-based, Gardnerella piotii. Particulars: 5 hours, pH 5.0, anaerobic, 10 ul endolysin (0.2 mg/ml where possible) + 90 ul 5e7 CFU/ml, average of triplicate. The procedure: as §3, §1, §2
In the case of B1, the “log 10 of the ratio of surviving CFU” value was −1.0 log 10.
On to B2, for which the “log 10 of the ratio of surviving CFU” value is reported as −0.3 log 10.
On the same count and under the same terms, to B3 belongs −0.4 log 10.
Still for that read-out and setting: to B4 belongs −2.4 log 10; to B5, −0.1 log 10; to B6, −1.2 log 10.
